Results: patent US20090075297A1 (SCHERING, published 2009)
No end group written: not given here.

Assays:
rat GalR3 receptor [1] = target: T1, rat GalR3 receptor (rat, UniProt O88626 1-370); assay: competition with 0.3 nM 125I-porcine galanin on membranes of COS-7 cells transfected with rat GalR3; filtration; Cheng-Prusoff
T1 construct: Full-length receptor (370 amino acids) expressed from pCR3.1 in COS-7 cells; The assay used membrane preparations of the transfected cells; also called rat type 3 galanin receptor; cellular receptors
T1 chain: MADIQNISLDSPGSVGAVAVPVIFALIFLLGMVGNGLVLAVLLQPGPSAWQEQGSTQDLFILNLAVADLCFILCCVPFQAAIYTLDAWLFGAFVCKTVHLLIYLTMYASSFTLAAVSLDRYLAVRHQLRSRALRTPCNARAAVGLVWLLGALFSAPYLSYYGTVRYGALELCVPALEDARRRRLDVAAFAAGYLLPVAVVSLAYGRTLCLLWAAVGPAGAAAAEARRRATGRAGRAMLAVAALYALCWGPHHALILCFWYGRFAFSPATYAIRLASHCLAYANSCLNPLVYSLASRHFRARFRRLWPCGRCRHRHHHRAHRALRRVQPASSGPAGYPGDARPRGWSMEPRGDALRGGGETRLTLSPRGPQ
Protocol: (§1) Binding of ¹²⁵I-porcine-galanin to the membrane preparations was performed in a buffer containing 25 mM Tris-Cl (pH7.4), 1% bovine serum albumin (w/v), 0.1% bacitracin, 2 μg/ml leupeptin and 10 mM MgCl₂. Ligand saturation plots were performed using 20 μg amounts of the membrane protein in a total volume of 200 μl using 3 μM cold galanin to determine nonspecific binding. Peptide competition studies were performed in a total volume of 200 μl, containing 20 μg of membrane protein and 0.3 nM ¹²⁵I-porcine galanin. Incubations were carried out at room temperature for 1 hour and were terminated by rapid vacuum filtration through MULTISCREEN FB (glass fiber B) Filter Plates (Millipore, Bedford, Mass.) which had been pre-treated with 0.30% polyethylenimine to prevent non-specific binding of the radioligand to the filter. The filters were then washed three times with 100 μl of PBS (pH7.4). All data were analyzed using non-linear regression software (Prism, GraphPad, San Diego, Calif.), and the Ki was calculated using the method of Cheng and Prusoff [Biochem. Pharmacol. 22:3099-3108 (1973)].
The curves shown indicate the fits of the data points by nonlinear regression for one-site binding.

rat GalR3 receptor [2] = target: T1, rat GalR3 receptor; assay: radioligand binding to membranes of COS-7 cells transfected with rat GalR3
Protocol: as §1

Binder	Ki (rat GalR3 receptor [1]) [nM]	binding result (rat GalR3 receptor [2])
WTLNSAGYLLGPHAIDNHRSFSDKHGLT (peptide, UniProt P10683 34-61, looked up, range 2-29; also called Rat galanin 92-29) [rat galanin(2-29)]	14	–
LLGPHAIDNHR [galanin(10-20)]	> 1000	–
GWTLNSAGYLLGPHAIDNHRSFSDKHGLT (ligand, UniProt P10683 33-61, looked up, also called galanin itself) [rat galanin]	1.2	–
GWTLNSAGYLLGPHAIDNHRSFHDKYGLA (ligand, UniProt P07480 33-61, looked up, ends and bridges not checked; also: 125I radiolabel, residue not given here, Bought radioligand; also called labeled galanin) [125I-porcine galanin]	–	binds
TLNSAGYLLGPHAIDNHRSFSDKHGLT (peptide, UniProt P10683 35-61, looked up, range 3-29) [rat galanin(3-29)]	> 1000	–
